We go through one substance from patent US8710180B2, “VEGF-specific capture agents, compositions, and methods of using and making” (Indi Molecular, Inc., priority 2011, dated 2014).

Broadly, the IC50 is the point on the concentration scale where inhibition reaches its midpoint. Higher therefore signals weaker potency. For orientation: Kd means the equilibrium constant for the complex coming apart.

Assay [1] deals with T1, VEGF165 (Homo sapiens, UniProt P15692).
T1 construct: purchased Abcam ab56620
T1 sequence (P15692 27-191 isoform P15692-4): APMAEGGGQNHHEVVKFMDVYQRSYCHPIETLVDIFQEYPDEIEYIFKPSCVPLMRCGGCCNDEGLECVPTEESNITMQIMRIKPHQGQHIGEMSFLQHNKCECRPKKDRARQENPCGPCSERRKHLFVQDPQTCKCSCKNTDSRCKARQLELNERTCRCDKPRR
Briefly: pull-down (immunoprecipitation) of VEGF165 from spiked buffer or human serum, Western blot and silver stain. It counts as binding. The settings on record: VEGF165-spiked buffer (B) vs 25% human serum (S). Here is the method: A pull-down assay was used to assess capture agent specificity for VEGF by measuring the ability of the capture agents to purify VEGF165 from buffer or complex media such as human serum. Capture agents were immobilized on streptavidin-functionalized magnetic beads, and the resultant resins were panned with VEGF165-spiked serum or buffer.
Pull-down detection of VEGF165 was performed using a modified immunoprecipitation technique that incorporated capture agents rather than antibody. […] A vehicle-only control (0.1% DMSO, v/v) accompanied each sample.
Proteins were captured by BSA-blocked Dynabeads® M-280 Streptavidin (Invitrogen, #112-05D) under rotation at 4° C. for 4 hours (100 μL of 50% slurry per pull-down condition). Beads were separated from the serum or buffer matrix by application of the DynaMag™-Spin magnet (Invitrogen, #123-20D), and captured proteins were eluted from the beads in 30 μL of reducing Laemmli buffer. Eluted samples were subjected to 12% SDS-PAGE separation at 200 V for 30 minutes in 1×TGS (25 mM Tris, 192 mM Glycine, 0.1% SDS (w/v), pH 8.3). Samples were subsequently electrophoretically transferred to a nitrocellulose membrane in 25 mM Tris, 192 mM Glycine, pH 8.3, containing 20% (v/v) methanol (Bio-Rad Laboratories, Hercules, Calif.) at 100 V for 45 minutes. […]
A general note: A western blot detects proteins with antibodies after separation by electrophoresis.

The target in assay [2] is T2, VEGF165 binding to Avastin® Fab (Homo sapiens, UniProt P15692).
T2 construct: biotin (chemical labelling)
T2 sequence (P15692 27-191 isoform P15692-4): T1 sequence (P15692 27-191 isoform P15692-4)
Briefly: competitive ELISA, inhibition of VEGF165 binding to Avastin Fab. The settings on record: 10 nM biotinylated VEGF165, Avastin Fab coated plate. How it is done: Using an excitation wavelength of 535 nm, fluorescent emission at 595 nm was recorded by Beckman Coulter DTX880 photometer (Brea, Calif.) as a function of capture agent concentration. The titration curves were fit using a four-parameter regression curve fitting program (Origin 8.5, Northampton, Mass.). Concentrations of peptides corresponding to the midpoint absorbance of the titration curve were calculated and used as the IC50 values.
In general terms: ELISA stands for enzyme-linked immunosorbent assay.

Assay [3] has as its target T1, VEGF165. The experiment in a line: direct solid-phase ELISA, binding of capture agents to VEGF165. The settings on record: immobilized VEGF165; KD estimated as concentration at half-maximal fluorescent emission. How it is done:
The equilibrium dissociation constant (KD) for the capture agents may be estimated as the concentration corresponding to half-maximal fluorescent emission. Assaying multiple capture agents in parallel permits relative and absolute comparison of in vitro binding.
After washing each well with PBS (3×), the plate was filled with 5% non-fat dry milk in TBS (25 mM Tris, 150 mM NaCl, pH 7.25) containing 0.1% (v/v) Triton X-100 and blocked for 2 hours at 25° C. […] After washing all microwells with TBS/0.1%(v/v) Triton X-100 (5×), 0.1 μg/mL Streptavidin Poly-HRP conjugate (Pierce, Ill.) in TBS/0.1%(v/v) Triton X-100 was incubated for 30 minutes at 25° C. The plate was aspirated and washed with TBS/0.1% (v/v) Triton X-100 (5×), followed by TBS (5×), and then developed by adding QuantaRed^TM Enhanced Chemifluorescent HRP Substrate. Using an excitation wavelength of 535 nm, fluorescent emission at 595 nm was recorded by Beckman Coulter DTX880 photometer (Brea, Calif.) as a function of capture agent concentration. The titration curves were fit using a four-parameter regression curve fitting program (Origin 8.5, Northampton, Mass.).

Turning to “X-VEPNCDIHVMWEWECFERL-Tz4-lfrew-Tz4-eeird [Triligand 2]”, the “capture of VEGF in buffer vs. serum” value with VEGF165 [1] was “captures equivalent amounts of VEGF in buffer and serum”. In addition, the IC50 in assay [2] was 400 nM. The Kd with VEGF165 [3] was ~15 nM.
